Laboratory results reported in patent US20040170630A1 (published 2004).

B1: human monoclonal antibody 5G10 (antibody, V domains shown)
VH: QVQLVQSGAEVKKPGASVKVSCKVSGYTLTELSMHWVRQAPGKGLEWMGGFDPEDGETIYAQKFQGRVTMTEDTSTDTAYMELSSLRSEDTAVYYCATESLVRYFDWLSHFDYWGQGTLVTVSS
VL: DIQMTQSPSSLSASVGDRVTITCRASQGISSWLAWYQQKPEKAPKSLIYAASSLQSGVPSRFSGSGSGTDFTLTISSLQPEDFATYYCQQYNSYPYTFGQGTKLEIK
notes: Human IgG kappa from a KM mouse hybridoma; subclass not reported
B2: human monoclonal antibody 2H8 (antibody, V domains shown)
VH: QVQLVQSGAEVKKPGASVKVSCKVSGYTLTELSMHWVRQAPGKGLEWMGGFDPEDGETIYAQKFQDRVTMTEDTSTDTAYMELSSLRSEDTAVYYCTTESLVRYFDWLSHFDYWGQGTLVTVSS
VL: DIQMTQSPSSLSASVGDRVTITCRASQGISSWLAWYQQKPEKAPKSLIYAASSLQSGVPSRFSGSGSGTDFTLTISSLQPEDFATYYCQQYNSYPYTFGQGTKLEIK
notes: as for B1
B3: human monoclonal antibody 22D9 (antibody, V domains shown)
VH: QVQLVQSGAEVKKPGASVKVSCKVSGYTLTELSMHWVRQAPGKGLEWMGGFDPEDGETIYAQKFQGRVTMTEDTSTDTAYMELSSLRSDDTAVYYCATESLVRYFDWLSHFDYWGQGTLVTVSS
VL: DIQMTQSPSSLSASVGDRVTITCRASQGISSWLAWYQQKPEKAPKSLIYAASSLQSGVPSRFSGSGSGTDFTLTISSLQPEDFATYYCQQYNSYPYTFGQGTKLEIK
notes: Fully human IgG with kappa light chain from a KM mouse hybridoma, purified by Protein A
B4: human monoclonal antibody 13B2 (antibody, V domains shown)
VH: EVQLVESGGGLVQPGGSLRLSCAASGFTFSSYWMSWVRQAPGKGLEWVASIYQDGSEKYYVDSVKGRFTISRDNAKNSLYLQMNSLRAEDTAMYYCARELDWGWDYWGQGTLVTVSS
VL: AIQLTQSPSSLSASVGDRVTITCRASQGISSALAWYQQKPGKAPKLLIYDASSLESGVPSRFSGSGSGTDFTLTISSLQPEDFATYYCQQFNSYPITFGQGTRLEIK
notes: as for B1
B5: human monoclonal antibody 1E7 (antibody, V domains shown)
VH: EVQLVESGGGLVQPGGSLRLSCAASGFTFSSYWMSWVRQAPGKGLEWVASIYQDGSEKYYVDSVKGRFTISRDNAKNSLYLQMNSLRAEDTAVYYCARELDWGWDYWGQGTLVTVSS
VL: AIQLTQSPSSLSASVGDRVTITCRASQGISSALAWYQQKPGKAPKLLIYDASSLESGVPSRFSGSGSGTDFTLTISSLQPEDFATYYCQQFNSYPITFGQGTRLEIK
notes: as for B1

Columns and labels:
[1] = target: T1, recombinant heparanase 8 kDa/50 kDa heterodimer (baculovirus, insect cell expressed) (human, UniProt Q9Y251 36-109; Q9Y251 158-543); test: ELISA on coated recombinant heparanase and on biotin-heparanase captured by streptavidin; hybridoma supernatants
T1 construct: domain: 8 kDa subunit;domain: 50 kDa subunit; Amplified from a mammary gland cDNA library; In one screening ELISA it was biotinylated; also called 8/50 heterodimer protein; purified recombinant heparanase
T1 sequence 1: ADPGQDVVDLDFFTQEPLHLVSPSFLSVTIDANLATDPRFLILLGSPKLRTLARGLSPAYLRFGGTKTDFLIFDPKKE
T1 sequence 2: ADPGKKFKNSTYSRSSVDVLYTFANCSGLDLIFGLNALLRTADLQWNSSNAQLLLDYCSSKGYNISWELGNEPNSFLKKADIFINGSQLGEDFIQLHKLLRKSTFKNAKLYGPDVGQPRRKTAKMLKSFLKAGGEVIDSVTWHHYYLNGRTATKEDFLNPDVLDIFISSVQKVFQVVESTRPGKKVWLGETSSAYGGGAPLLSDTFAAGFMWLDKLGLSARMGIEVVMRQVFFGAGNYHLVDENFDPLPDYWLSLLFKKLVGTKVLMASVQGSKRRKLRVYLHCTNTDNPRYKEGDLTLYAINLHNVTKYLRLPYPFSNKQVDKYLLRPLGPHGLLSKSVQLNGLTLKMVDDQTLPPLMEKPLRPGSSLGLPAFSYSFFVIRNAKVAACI
Protocol: To select KM mice producing antibodies that bound heparanase, sera from immunized mice was tested by ELISA as described by Fishwild, D. et al. (1996). Briefly, microtiter plates were coated with purified recombinant heparanase from baculovirus at 1-2 μg /ml in PBS, 50 μl/wells incubated 4° C. overnight then blocked with 200 μl/well of 5% chicken serum in PBS/Tween (0.05%). Dilutions of plasma from heparanase-immunized mice were added to each well and incubated for 1-2 hours at ambient temperature. The plates were washed with PBS/Tween and then incubated with a goat-anti-human IgG Fc polyclonal antibody conjugated with horseradish peroxidase (HRP) for 1 hour at room temperature. After washing, the plates were developed with ABTS substrate (Sigma, A-1 888, 0.22 mg/ml) and analyzed by spectrophotometer at OD 415-495. Mice that developed the highest titers of anti-heparanase antibodies were used for fusions. Fusions were performed as described above and hybridoma supernatants were tested for anti-heparanase activity by ELISA. In order to select antibodies that bind to heparanase enzyme, an ELISA assay as described above and a biotinylated ELISA as described above with following modifications were applied. Briefly, ELISA plates were coated with streptavidin (Sigma catalog number: S-4762) at 1 μg/ml in PBS, 50 ul/well. After overnight incubation at 4° C., the plates were blocked with 200 μl/well of 5% chicken serum in PBS/Tween (0.05%). The plates were then washed with PBS/Tween three times. Biotin-heparanase was added to the plates at 1 μg/ml in PBS, 50 ul/well and then incubated for 1 hour at room temperature. 50 ul/well of the supernatants were then added to the plates and incubated for 1-2 hours at room temperature. The rest of the procedures were exactly the same as described above. Hybridomas secreting a monoclonal antibody that bound with high avidity to heparanase were selected for further characterization for enzymatic, motility and angiogenesis activities.

[2] = target: T1, recombinant heparanase 8 kDa/50 kDa …; test: competition binding format

Row | Binder | binding result [1] | binding result [2]
1 | B1 | binds | –
2 | B2 | binds | –
3 | B3 | – | binds
4 | B4 | binds | –
5 | B5 | binds | –
